Source: doi:10.1101/2025.03.12.642832

Biological target: polyketide synthase 16 (Pks16) (D. discoideum (endogenous in AX2-214 cells)) (UniProt Q869W9)
Test: cryo-EM structure

stoichiometry N: 2
Substance: polyketide synthase 16 (Pks16), Q869W9 1-2603
